We go through 3 molecules from PMC5338925, “Human Nup98 regulates the localization and activity of DExH/D-box helicase DHX9” (eLife, 2017).

One experiment deals with GST-DHX9 (human) (UniProt Q08211).
The next experiment concerns the target T1, GST-Nup98^1–863 (human, UniProt P52948-4 1-863).
T1 construct: Nup98, human, residues 1-863; Held on glutathione magnetic agarose beads by its GST; also called GST-Nup98 (bead halo bait); source: purified recombinant protein (E. coli BL21-CodonPlus(DE3), glutathione-Sepharose 4B)
T1 sequence (looked up): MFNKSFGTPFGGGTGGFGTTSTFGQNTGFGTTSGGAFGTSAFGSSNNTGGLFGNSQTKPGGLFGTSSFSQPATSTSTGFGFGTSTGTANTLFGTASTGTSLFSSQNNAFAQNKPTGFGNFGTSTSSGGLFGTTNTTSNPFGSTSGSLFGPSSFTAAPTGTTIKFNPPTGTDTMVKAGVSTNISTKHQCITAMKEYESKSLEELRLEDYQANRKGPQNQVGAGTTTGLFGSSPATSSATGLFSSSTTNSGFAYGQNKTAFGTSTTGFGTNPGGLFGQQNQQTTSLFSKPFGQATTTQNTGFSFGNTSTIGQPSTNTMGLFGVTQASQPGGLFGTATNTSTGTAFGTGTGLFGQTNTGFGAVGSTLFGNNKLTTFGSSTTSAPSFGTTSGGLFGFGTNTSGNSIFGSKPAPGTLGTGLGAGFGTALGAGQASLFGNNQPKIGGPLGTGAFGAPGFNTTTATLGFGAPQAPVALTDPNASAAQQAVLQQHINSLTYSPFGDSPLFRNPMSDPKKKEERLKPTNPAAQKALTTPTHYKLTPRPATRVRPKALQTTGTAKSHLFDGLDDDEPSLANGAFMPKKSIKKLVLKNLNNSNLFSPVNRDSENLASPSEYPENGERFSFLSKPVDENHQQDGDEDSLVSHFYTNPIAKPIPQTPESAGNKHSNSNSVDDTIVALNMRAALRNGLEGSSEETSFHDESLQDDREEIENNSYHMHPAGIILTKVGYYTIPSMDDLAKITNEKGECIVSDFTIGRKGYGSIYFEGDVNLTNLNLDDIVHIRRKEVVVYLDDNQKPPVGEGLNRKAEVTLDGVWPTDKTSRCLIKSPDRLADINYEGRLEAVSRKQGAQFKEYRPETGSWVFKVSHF
Briefly: bead halo assay; GST-Nup98 1-863 held on glutathione magnetic agarose beads (bait); DHX9 domains with C-terminal eGFP (prey) detected by fluorescence microscopy; PBS-T, 10 min, 4 °C; pre-treated with RNase A, poly I:C RNA or buffer alone. The settings on record: both partners purified.

Regarding “GST-Nup98^1–920 (from UniProt P52948-4 1-920) (natural protein)”, in the experiment with GST-DHX9 (human), the ATPase activity (ATP hydrolysis rate) of GST-DHX9 with excess RNA (poly I:C) and increasing concentrations of GST-Nup98 was 5 fold.

B1: DHX9 1–380 tagged with eGFP (domain or fragment, human, UniProt Q08211 1-380, looked up)
chain: MGDVKNFLYAWCGKRKMTPSYEIRAVGNKNRQKFMCEVQVEGYNYTGMGNSTNKKDAQSNAARDFVNYLVRINEIKSEEVPAFGVASPPPLTDTPDTTANAEGDLPTTMGGPLPPHLALKAENNSEVGASGYGVPGPTWDRGANLKDYYSRKEEQEVQATLESEEVDLNAGLHGNWTLENAKARLNQYFQKEKIQGEYKYTQVGPDHNRSFIAEMTIYIKQLGRRIFAREHGSNKKLAAQSCALSLVRQLYHLGVVEAYSGLTKKKEGETVEPYKVNLSQDLEHQLQNIIQELNLEILPPPEDPSVPVALNIGKLAQFEPSQRQNQVGVVPWSPPQSNWNPWTSSNIDEGPLAFATPEQISMDLKNELMYQLEQDHDLQA
notes: also called N-terminal region (residues 1–380); N-terminal domain of DHX9-GFP; source: purified recombinant protein; not shown: eGFP, C-terminal, kept
B1: the binding result with GST-Nup98^1–863 is reported as “binds”.

B2: DHX9 821–1270 tagged with eGFP (domain or fragment, human, UniProt Q08211 821-1270, looked up)
chain: IEPPPLDAVIEAEHTLRELDALDANDELTPLGRILAKLPIEPRFGKMMIMGCIFYVGDAICTIAAATCFPEPFINEGKRLGYIHRNFAGNRFSDHVALLSVFQAWDDARMGGEEAEIRFCEHKRLNMATLRMTWEAKVQLKEILINSGFPEDCLLTQVFTNTGPDNNLDVVISLLAFGVYPNVCYHKEKRKILTTEGRNALIHKSSVNCPFSSQDMKYPSPFFVFGEKIRTRAISAKGMTLVTPLQLLLFASKKVQSDGQIVLVDDWIKLQISHEAAACITGLRAAMEALVVEVTKQPAIISQLDPVNERMLNMIRQISRPSAAGINLMIGSTRYGDGPRPPKMARYDNGSGYRRGGSSYSGGGYGGGYSSGGYGSGGYGGSANSFRAGYGAGVGGGYRGVSRGGFRGNSGGDYRGPSGGYRGSGGFQRGGGRGAYGTGYFGQGRGGGGY
notes: also called C-terminal segment (residues 821–1270); C-terminal domain of DHX9-GFP; source: purified recombinant protein; not shown: eGFP, C-terminal, kept
With B2, in the experiment with GST-Nup98^1–863, the binding result was “binds”.
